According to patent US20100260668A1 (published 2010):

These binders were tested against T1, DLL4 (DLL ECD His tag, R&D 1506-D4-050) (UniProt Q9NR61 27-529) (assay: BIACORE (SPR), DVD-Ig against DLL4).
T1 construct: extracellular domain; bought

Binder | Kd [nM] | koff [s⁻¹] | kon [M⁻¹ s⁻¹]
DVD482 (bispecific antibody, human IgG1, kappa, DVD-Ig; N-term; VD VEGF (AB014), C-term; VD DLL4 (AB015); HC linker short, LC linker long; also called DVD-Ig DVD482; DVD482H) heavy: not shown light: DIQMTQSPSSLSASVGDRVTITCSASQDISNYLNWYQQKPGKAPKVLIYFTSSLHSGVPSRFSGSGSGTDFTLTISSLQPEDFATYYCQQYSTVPWTFGQGTKVEIKRTVAAPSVFIFPPDIQMTQSPSSLSASVGDRVTITCRASQDVSTAVAWYQQKPGKAPKLLIYSASFLYSGVPSRFSGSGSGTDFTLTISSLQPEDFATTYYCQQSYTGTVTFGQGTKVEIKRTVAAPSVFIFPPSDEQLKSGTASVVCLLNNFYPREAKVQWKVDNALQSGNSQESVTEQDSKDSTYSLSSTLTLSKADYEKHKVYACEVTHQGLSSPVTKSFNRGEC | 2.08 | 0.000232 | 111000
DVD494 (bispecific antibody, human IgG1, kappa, DVD-Ig; N-term; VD VEGF (AB014), C-term; VD DLL4 (AB072); HC linker long, LC linker long; also called DVD-Ig DVD494; DVD494H) heavy: not shown light: DIQMTQSPSSLSASVGDRVTITCSASQDISNYLNWYQQKPGKAPKVLIYFTSSLHSGVPSRFSGSGSGTDFTLTISSLQPEDFATYYCQQYSTVPWTFGQGTKVEIKRTVAAPSVFIFPPDIQMTQSSSYLSVSLGGRVTITCKASDHINNWLAWYQQKPGNAPRLLISGATSLETGVPSRFSGSGSGKDYTLSITSLQTEDVATYYCQQYWSIPLTFGAGTKLELKRTVAAPSVFIFPPSDEQLKSGTASVVCLLNNFYPREAKVQWKVDNALQSGNSQESVTEQDSKDSTYSLSSTLTLSKADYEKHKVYACEVTHQGLSSPVTKSFNRGEC | 1.39 | 0.000183 | 132000
DVD506 (bispecific antibody, human IgG1, kappa, DVD-Ig; N-term; VD VEGF (AB014), C-term; VD DLL4 (AB072); HC linker short, LC linker long; also called DVD-Ig DVD506; DVD506H) heavy: not shown light: DIQMTQSPSSLSASVGDRVTITCSASQDISNYLNWYQQKPGKAPKVLIYFTSSLHSGVPSRFSGSGSGTDFTLTISSLQPEDFATYYCQQYSTVPWTFGQGTKVEIKRTVAAPSVFIFPPDIQMTQSSSYLSVSLGGRVTITCKASDHINNWLAWYQQKPGNAPRLLISGATSLETGVPSRFSGSGSGKDYTLSITSLQTEDVATYYCQQYWSIPLTFGAGTKLELKRTVAAPSVFIFPPSDEQLKSGTASVVCLLNNFYPREAKVQWKVDNALQSGNSQESVTEQDSKDSTYSLSSTLTLSKADYEKHKVYACEVTHQGLSSPVTKSFNRGEC | 1.47 | 0.000104 | 70700

Binders with a lower Kd, results first:

Kd [nM] | koff [s⁻¹] | kon [M⁻¹ s⁻¹] | Binder
0.716 | 0.000161 | 226000 | DVD473 (bispecific antibody, human IgG1, kappa, DVD-Ig; N-term; VD DLL4 (AB015), C-term; VD VEGF (AB071); HC linker long, LC linker long; also called DVD-Ig DVD473; DVD473H) heavy: not shown light: DIQMTQSPSSLSASVGDRVTITCRASQDVSTAVAWYQQKPGKAPKLLIYSASFLYSGVPSRFSGSGSGTDFTLTISSLQPEDFATTYYCQQSYTGTVTFGQGTKVEIKRTVAAPSVFIFPPDIQMTQSPSSLSASVGDRVTITCRASQVIRRSLAWYQQKPGKAPKLLIYAASNLASGVPSRFSGSGSGTDFTLTISSLQPEDFATYYCQQSNTSPLTFGQGTKVEIKRTVAAPSVFIFPPSDEQLKSGTASVVCLLNNFYPREAKVQWKVDNALQSGNSQESVTEQDSKDSTYSLSSTLTLSKADYEKHKVYACEVTHQGLSSPVTKSFNRGEC
1.16 | – | – | DVD485 (bispecific antibody, human IgG1, kappa, DVD-Ig; N-term; VD DLL4 (AB015), C-term; VD VEGF (AB071); HC linker short, LC linker long; also called DVD-Ig DVD485; DVD485H) heavy: not shown light: DIQMTQSPSSLSASVGDRVTITCRASQDVSTAVAWYQQKPGKAPKLLIYSASFLYSGVPSRFSGSGSGTDFTLTISSLQPEDFATTYYCQQSYTGTVTFGQGTKVEIKRTVAAPSVFIFPPDIQMTQSPSSLSASVGDRVTITCRASQVIRRSLAWYQQKPGKAPKLLIYAASNLASGVPSRFSGSGSGTDFTLTISSLQPEDFATYYCQQSNTSPLTFGQGTKVEIKRTVAAPSVFIFPPSDEQLKSGTASVVCLLNNFYPREAKVQWKVDNALQSGNSQESVTEQDSKDSTYSLSSTLTLSKADYEKHKVYACEVTHQGLSSPVTKSFNRGEC
1.03 | 7.02e-05 | 68400 | DVD470 (bispecific antibody, human IgG1, kappa, DVD-Ig; N-term; VD VEGF (AB014), C-term; VD DLL4 (AB015); HC linker long, LC linker long; also called DVD-Ig DVD470; DVD470H) heavy: not shown light: DIQMTQSPSSLSASVGDRVTITCSASQDISNYLNWYQQKPGKAPKVLIYFTSSLHSGVPSRFSGSGSGTDFTLTISSLQPEDFATYYCQQYSTVPWTFGQGTKVEIKRTVAAPSVFIFPPDIQMTQSPSSLSASVGDRVTITCRASQDVSTAVAWYQQKPGKAPKLLIYSASFLYSGVPSRFSGSGSGTDFTLTISSLQPEDFATTYYCQQSYTGTVTFGQGTKVEIKRTVAAPSVFIFPPSDEQLKSGTASVVCLLNNFYPREAKVQWKVDNALQSGNSQESVTEQDSKDSTYSLSSTLTLSKADYEKHKVYACEVTHQGLSSPVTKSFNRGEC
0.302 | 0.000177 | 585000 | DVD467 (bispecific antibody, human IgG1, kappa, DVD-Ig; N-term; VD DLL4 (AB015), C-term; VD VEGF (AB071); HC linker short, LC linker short; 2'; 3'; also called DVD-Ig DVD467; DVD467H) heavy: not shown light: DIQMTQSPSSLSASVGDRVTITCRASQDVSTAVAWYQQKPGKAPKLLIYSASFLYSGVPSRFSGSGSGTDFTLTISSLQPEDFATTYYCQQSYTGTVTFGQGTKVEIKRTVAAPDIQMTQSPSSLSASVGDRVTITCRASQVIRRSLAWYQQKPGKAPKLLIYAASNLASGVPSRFSGSGSGTDFTLTISSLQPEDFATYYCQQSNTSPLTFGQGTKVEIKRTVAAPSVFIFPPSDEQLKSGTASVVCLLNNFYPREAKVQWKVDNALQSGNSQESVTEQDSKDSTYSLSSTLTLSKADYEKHKVYACEVTHQGLSSPVTKSFNRGEC
